Earlier results as cited in paper PMC4174909.

Target: His37 (UniProt position 37, IIGILHLILWI)

Which pKa does the source give for “Matrix protein 2 (M2 proton channel) (Influenza A virus (strain not stated for the quoted pKa values; the experiments of this article use A/Udorn/72))” here?
The pKa was 8.2 and about 6 and about 4 to 5.
